From the supplement of paper PMC7877785
± gives the uncertainty stated by the source.

Assay: self-splicing fitness, log relative to wild type (ln ratio); higher = more splicing; Tetrahymena group I intron in knt gene, E. coli kanamycin selection, DiMSum; sequences stand for … in CUCUCU…GGAGGGAAAAGUUAUCAGGCAUGCACCUGGUAGCUAGUCUUUAAACCAAUAGAUUGCAUCGGUUUAAAAGGCAAGACCGUCAAAUUGCGGGAAAGGGGUCAACAGCCGUUCAGUACCAAGUCUCAGGGGAAACUUUGAGAUGGCCUUGCAAAGGGUAUGGUAAUAAGCUGACGGACAUGGUCCUAACCACGCAGCCAAGUCCUAAGUCAACAGAUCUUCUGUUGAUAUGGAUGCAGUUCACAGACUAAAUGUCGGUCGGGGAAGAUGUAUUCUUCUCAUAAGAUAUAGUCGGACCUCUCCUUAAUGGGAGCUAGCGGAUGAAGUGAUGCAACACUGGAGCCGCUGGGAACUAAUUUGUAUGCGAAAGUAUAUUGAUUAGUUUUGGAGUACUCGUGGUCG
In short: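 Colonies from six replicate transformations of E. coli BL21(DE3) were pooled and amplicon-sequenced on an Illumina HiSeq 2500. The library placed an intron with all eight P1ex-region nucleotides randomised inside the knt kanamycin-resistance gene on pET-22b(+), and cells grew overnight at 37°C or 30°C on LB agar with or without 25 μg/mL kanamycin (plus 100 μg/mL carbenicillin, 50 μM IPTG, 0.2% rhamnose). Fitness is the DiMSum error-weighted combination of wild-type-normalised replicate fold changes, kanamycin versus none.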

Row | Sequence | self-splicing fitness (ln) (30 °C) | self-splicing fitness (ln) (37 °C)
1 | UAAUAGCAAUAUUACGCUCG | 0.447 ± 0.16 | 0.265 ± 0.18
2 | UAAUAGCAAUAUUACGGCAU | -3.26 ± 0.18 | -2.28 ± 0.23
3 | UAAUAGCAAUAUUACGGGCG | -1.45 ± 0.1 | -0.567 ± 0.13
4 | UAAUAGCAAUAUUACGUAGC | -2.63 ± 0.35 | -2.19 ± 0.26
5 | UAAUAGCAAUAUUACGUCGC | -3.86 ± 0.43 | -1.71 ± 0.35
6 | UAAUAGCAAUAUUACGUGAC | -3.71 ± 0.22 | -2.78 ± 0.22
7 | UAAUAGCAAUAUUACGUGAG | -1.76 ± 0.088 | -1.47 ± 0.12
8 | UAAUAGCAAUAUUACGUGUC | -3.02 ± 0.23 | -2.44 ± 0.3
9 | UAAUAGCAAUAUUACGUUGG | -3.11 ± 0.13 | -0.991 ± 0.11
10 | UACAAGCAAUAUUACGAAAG | -2.61 ± 0.11 | -2.37 ± 0.16
11 | UACAAGCAAUAUUACGAAGU | -4.09 ± 0.42 | -1.97 ± 0.24
12 | UACAAGCAAUAUUACGACCC | -2.31 ± 0.46 | –
13 | UACAAGCAAUAUUACGACGA | -0.323 ± 0.065 | 0.0319 ± 0.075
14 | UACAAGCAAUAUUACGACUA | -0.188 ± 0.062 | 0.316 ± 0.083
15 | UACAAGCAAUAUUACGAGAU | -3.65 ± 0.28 | -3.07 ± 0.28
16 | UACAAGCAAUAUUACGCACG | -1.29 ± 0.094 | 0.0257 ± 0.1
17 | UACAAGCAAUAUUACGCCCA | 0.292 ± 0.11 | 0.261 ± 0.13
18 | UACAAGCAAUAUUACGCGGU | -3.61 ± 0.16 | -2.61 ± 0.18
19 | UACAAGCAAUAUUACGCUGC | -2.03 ± 0.19 | -0.919 ± 0.32
20 | UACAAGCAAUAUUACGCUGU | – | -1.65 ± 0.28
21 | UACAAGCAAUAUUACGCUUA | -2.33 ± 0.11 | -1.18 ± 0.08
22 | UACAAGCAAUAUUACGCUUC | -4.25 ± 0.42 | -3.02 ± 0.25
23 | UACAAGCAAUAUUACGGAUA | -1.38 ± 0.086 | -0.839 ± 0.092
24 | UACAAGCAAUAUUACGGCUA | -0.336 ± 0.06 | 0.201 ± 0.088

Row | Sequence | self-splicing fitness (ln) (30 °C) | self-splicing fitness (ln) (37 °C)
25 | UACAAGCAAUAUUACGGCUG | -0.22 ± 0.1 | 0.307 ± 0.16
26 | UACAAGCAAUAUUACGGUGG | -1.65 ± 0.051 | -1.25 ± 0.064
27 | UACAAGCAAUAUUACGUACA | -1.56 ± 0.084 | -0.15 ± 0.086
28 | UACAAGCAAUAUUACGUACG | -3.9 ± 0.22 | -1.3 ± 0.13
29 | UACAAGCAAUAUUACGUGCA | -0.352 ± 0.083 | -0.366 ± 0.1
30 | UACAAGCAAUAUUACGUGCG | -1.05 ± 0.054 | -0.158 ± 0.075
31 | UACAAGCAAUAUUACGUGCU | -3.34 ± 0.16 | -2.22 ± 0.13
32 | UACAAGCAAUAUUACGUGGG | -3.82 ± 0.21 | -3.3 ± 0.24
33 | UACAAGCAAUAUUACGUGGU | -3.29 ± 0.14 | -3.27 ± 0.17
34 | UACCAGCAAUAUUACGAAUU | -2.55 ± 0.17 | -1.96 ± 0.2
35 | UACCAGCAAUAUUACGACUA | -0.413 ± 0.078 | 0.638 ± 0.098
36 | UACCAGCAAUAUUACGCCUG | -1.3 ± 0.14 | -1.21 ± 0.19
37 | UACCAGCAAUAUUACGCGAA | -0.474 ± 0.063 | -0.386 ± 0.086
38 | UACCAGCAAUAUUACGCGUG | 0.016 ± 0.081 | 0.0464 ± 0.099
39 | UACCAGCAAUAUUACGCUGA | -2.43 ± 0.15 | -1.21 ± 0.11
40 | UACCAGCAAUAUUACGGAAG | -3.5 ± 0.24 | -1.57 ± 0.16
41 | UACCAGCAAUAUUACGGCCC | -1.19 ± 0.14 | -0.219 ± 0.26
42 | UACCAGCAAUAUUACGGGGG | -2.5 ± 0.14 | -1.77 ± 0.13
43 | UACCAGCAAUAUUACGGUCC | -1.55 ± 0.11 | -0.0163 ± 0.11
44 | UACCAGCAAUAUUACGUAGC | -2.38 ± 0.11 | -1.72 ± 0.14
45 | UACCAGCAAUAUUACGUAUC | -2.55 ± 0.15 | -0.118 ± 0.12
46 | UACCAGCAAUAUUACGUCCU | -1.79 ± 0.1 | -1.34 ± 0.14
47 | UACCAGCAAUAUUACGUCGA | -0.651 ± 0.073 | -0.0658 ± 0.085
48 | UACCAGCAAUAUUACGUCGG | -2.64 ± 0.12 | -1.91 ± 0.14
